This note sets out measurements from the Human Domainome abundance scans (Beltran et al. 2025).

B1: Transcription elongation regulator 1-like protein, residues 448 to 504; numbered along this chain, Q5VWI1 (parent)
chain: LPLEERVTHFRDMLLERGVSAFSTWEKELHKIVFDPRYLLLNSEERKQIFEQFVKTR

± gives the uncertainty stated by the source.

In this data set the parent is B1. Nature of the data set: abundance fitness (aPCA) (normalised: wild type 0, dead -1); higher = more abundant; growth selection in yeast, the domain comes from the species named. Particulars: Homo sapiens.
Regarding LPLEERVTHFRDMLLERGVSAFSTWEKELHKIVFDPRYLLLNSEERKIIFEQFVKTR [Q48I], the abundance fitness is -0.213 ± 0.11.
In the case of LPLEERVTHFRDMLLERGVSAFSTWEKELHKIVFDPRYLLLNSEERKGIFEQFVKTR [Q48G] it was -0.237 ± 0.084; in that of LPLEERVTHFRDMLLERGVSAFSTWEKELHKIVFDPRYLLLNSEERKLIFEQFVKTR [Q48L], -0.082 ± 0.12.
On to LPLEERVTHFRDMLLERGVSAFSTWEKELHKIVFDPRYLLLNSEERKVIFEQFVKTR [Q48V], for which the abundance fitness is -0.065 ± 0.11.
The same measure for LPLEERVTHFRDMLLERGVSAFSTWEKELHKIVFDPRYLLLNSEERKKIFEQFVKTR [Q48K]: -0.31 ± 0.48; for LPLEERVTHFRDMLLERGVSAFSTWEKELHKIVFDPRYLLLNSEERKMIFEQFVKTR [Q48M]: -0.002 ± 0.24.
Turning to LPLEERVTHFRDMLLERGVSAFSTWEKELHKIVFDPRYLLLNSEERKWIFEQFVKTR [Q48W], the abundance fitness is -0.05 ± 0.18.
The same measure for LPLEERVTHFRDMLLERGVSAFSTWEKELHKIVFDPRYLLLNSEERKCIFEQFVKTR [Q48C]: -0.227 ± 0.1; for LPLEERVTHFRDMLLERGVSAFSTWEKELHKIVFDPRYLLLNSEERKAIFEQFVKTR [Q48A]: -0.036 ± 0.16.
The same measure for LPLEERVTHFRDMLLERGVSAFSTWEKELHKIVFDPRYLLLNSEERKNIFEQFVKTR [Q48N]: 0.751 ± 0.21.
In the case of LPLEERVTHFRDMLLERGVSAFSTWEKELHKIVFDPRYLLLNSEERKEIFEQFVKTR [Q48E] it was 0.006 ± 0.25; in that of LPLEERVTHFRDMLLERGVSAFSTWEKELHKIVFDPRYLLLNSEERKSIFEQFVKTR [Q48S], -0.139 ± 0.1.
For LPLEERVTHFRDMLLERGVSAFSTWEKELHKIVFDPRYLLLNSEERKDIFEQFVKTR [Q48D], the abundance fitness was found to be 0.297 ± 0.2.
Consider LPLEERVTHFRDMLLERGVSAFSTWEKELHKIVFDPRYLLLNSEERKRIFEQFVKTR [Q48R], for which the abundance fitness was -0.165 ± 0.098.
In the case of LPLEERVTHFRDMLLERGVSAFSTWEKELHKIVFDPRYLLLNSEEYKQIFEQFVKTR [R46Y] it was -0.162 ± 0.38; in that of LPLEERVTHFRDMLLERGVSAFSTWEKELHKIVFDPRYLLLNSEEVKQIFEQFVKTR [R46V], -0.436 ± 0.32; in that of LPLEERVTHFRDMLLERGVSAFSTWEKELHKIVFDPRYLLLNSEELKQIFEQFVKTR [R46L], -0.697 ± 0.13.
On to LPLEERVTHFRDMLLERGVSAFSTWEKELHKIVFDPRYLLLNSEEGKQIFEQFVKTR [R46G], for which the abundance fitness was -0.39 ± 0.2.
The same measure for LPLEERVTHFRDMLLERGVSAFSTWEKELHKIVFDPRYLLLNSEEAKQIFEQFVKTR [R46A]: -0.057 ± 0.12; for LPLEERVTHFRDMLLERGVSAFSTWEKELHKIVFDPRYLLLNSEEFKQIFEQFVKTR [R46F]: -0.533 ± 0.45.
In the case of LPLEERVTHFRDMLLERGVSAFSTWEKELHKIVFDPRYLLLNSEESKQIFEQFVKTR [R46S] it was -0.644 ± 0.23; in that of LPLEERVTHFRDMLLERGVSAFSTWEKELHKIVFDPRYLLLNSEECKQIFEQFVKTR [R46C], -0.657 ± 0.34.
LPLEERVTHFRDMLLERGVSAFSTWEKELHKIVFDPRYLLLNSEEWKQIFEQFVKTR [R46W]: the abundance fitness was -0.012 ± 0.16.
In the case of LPLEERVTHFRDMLLERGVSAFSTWEKELHKIVFDPRYLLLNSEEKKQIFEQFVKTR [R46K] it was -0.429 ± 0.49; in that of LPLEERVTHFRDMLLERGVSAFSTWEKELHKIVFDPRYLLLNSEETKQIFEQFVKTR [R46T], -0.815 ± 0.24; in that of LPLEERVTHFRDMLLERGVSAFSTWEKELHKIVFDPRYLLLNSEERKQAFEQFVKTR [I49A], -0.517 ± 0.28.
LPLEERVTHFRDMLLERGVSAFSTWEKELHKIVFDPRYLLLNGEERKQIFEQFVKTR [S43G]: the abundance fitness stood at 0.034 ± 0.079.
The same measure for LPLEERVTHFRDMLLERGVSAFSTWEKELHKIVFDPRYLLLNAEERKQIFEQFVKTR [S43A]: 0.016 ± 0.078; for LPLEERVTHFRDMLLERGVSAFSTWEKELHKIVFDPRYLLLNVEERKQIFEQFVKTR [S43V]: -0.309 ± 0.18.
In the case of LPLEERVTHFRDMLLERGVSAFSTWEKELHKIVFDPRYLLLNKEERKQIFEQFVKTR [S43K] it was -0.145 ± 0.13; in that of LPLEERVTHFRDMLLERGVSAFSTWEKELHKIVFDPRYLLLNTEERKQIFEQFVKTR [S43T], -0.197 ± 0.29; in that of LPLEERVTHFRDMLLERGVSAFSTWEKELHKIVFDPRYLLLNEEERKQIFEQFVKTR [S43E], 0.341 ± 0.085.
In the case of LPLEERVTHFRDMLLERGVSAFSTWEKELHKIVFDPRYLLLNREERKQIFEQFVKTR [S43R] it was -0.156 ± 0.14; in that of LPLEERVTHFRDMLLERGVSAFSTWEKELHKIVFDPRYLLLNQEERKQIFEQFVKTR [S43Q], 0.07 ± 0.4.
Regarding LPLEERVTHFRDMLLERGVSAFSTWEKELHKIVFDPRYLLLNLEERKQIFEQFVKTR [S43L], the abundance fitness is -0.065 ± 0.094.
With LPLEERVTHFRDMLLERGVSAFSTWEKELHKIVFDPRYLLLNWEERKQIFEQFVKTR [S43W], the abundance fitness was -0.424 ± 0.11.
Consider LPLEERVTHFRDMLLERGVSAFSTWEKELHKIVFDPRYLLLNFEERKQIFEQFVKTR [S43F], for which the abundance fitness was -0.328 ± 0.19.
Turning to LPLEERVTHFRDMLLERGVSAFSTWEKELHKIVFDPRYLLLNNEERKQIFEQFVKTR [S43N], the abundance fitness is -0.367 ± 0.45.
In the case of LPLEERVTHFRDMLLERGVSAFSTWEKELHKIVFDPRYLLLNMEERKQIFEQFVKTR [S43M] it was -0.134 ± 0.15.
In the case of LPLEERVTHFRDMLLERGVSAFSTWEKELHKIVFDPRYLLLNSESRKQIFEQFVKTR [E45S] it was -0.514 ± 0.21; in that of LPLEERVTHFRDMLLERGVSAFSTWEKELHKIVFDPRYLLLNSELRKQIFEQFVKTR [E45L], -0.067 ± 0.12.
The same measure for LPLEERVTHFRDMLLERGVSAFSTWEKELHKIVFDPRYLLLNSEIRKQIFEQFVKTR [E45I]: -0.242 ± 0.46.
On to LPLEERVTHFRDMLLERGVSAFSTWEKELHKIVFDPRYLLLNSETRKQIFEQFVKTR [E45T], for which the abundance fitness was -0.515 ± 0.21.
LPLEERVTHFRDMLLERGVSAFSTWEKELHKIVFDPRYLLLNSEHRKQIFEQFVKTR [E45H]: the abundance fitness was -0.204 ± 0.43.
In the case of LPLEERVTHFRDMLLERGVSAFSTWEKELHKIVFDPRYLLLNSEGRKQIFEQFVKTR [E45G] it was -0.427 ± 0.18.
The same measure for LPLEERVTHFRDMLLERGVSAFSTWEKELHKIVFDPRYLLLNSEVRKQIFEQFVKTR [E45V]: -0.858 ± 0.26.
